Measurements from patent US11161884B2 (SAVID THERAPEUTICS INC., priority 2014, dated 2021).
Blank lines part the entries; values can stand above or below the molecule they belong to.

Legend:
[1] = test system: DLD1 tumor; assay: In vivo imaging, DLD1 heterotransplantation model; design: species or system nude mice; settings: 25, 50, 100 μg intravenously, pre-labeled with Psyche F-IRDye 800; imaging 2, 24, 48 hours
Protocol: The thus purified anti-epiregulin scFv-V2122 was mixed with Psyche F-IRDye 800 (Compound 44 in Example) dissolved in DMSO (final concentration was ten-fold molar concentration), and the mixture was incubated on ice for 10 minutes. The buffer was then replaced with Japanese Pharmacopoeia physiological saline (Otsuka Pharmaceutical Co., Ltd.) using Zeba Spin Desalting Column (Thermo Fisher Scientific Inc.) and was stored under cooling. Epiregulin IgG was labeled using ICG Labeling Kit-NH2 (Dojindo Laboratories).
Suspension liquid of human colorectal cancer-derived DLD1 cell and Matrigel Matrix (Corning) were mixed in a ratio of 1:1 (5×10^6 cells/0.1 mL), and 0.1 mL of the mixed liquid was administered subcutaneously in the left side of 5 to 6-week-old female nude mice (Sankyo Labo Service Corporation, Inc.). The mice were bred for several weeks to produce tumor. One week before imaging, the feed was switched to a low fluorescence feed (iVid #1, Oriental Yeast Co., Ltd.) and the breeding was continued. […]
Anti-epiregulin scFv-V2122 antibody (25 μg, 50 μg, 100 μg) preliminarily labeled with fluorescence by allowing it to react with Psyche F-IRDye 800 (Compound 44 in Example), or fluorescent-labeled epiregulin IgG (50 μg) was intravenously administered to nude mice having established DLD1 tumor. […]

[2] = biological target: T1, Pro-EPR-mFc (extracellular domain of epiregulin fused with murine Fc region) (Homo sapiens, UniProt O14944); assay: SPR antigen binding potential (Biacore T200); settings: for Kd: SPR kinetics assay, Pro-EPR-mFc captured on CM5, read-out: affinity to the antigen after FITC labeling
T1 construct: made in house; host or cells: Expi293F cells, pcDNA3.4 vector
Excerpt: Next, in order to confirm whether the labeling reduced the binding potential or not, the antigen binding potential of anti-epiregulin scFv-V2122-FITC was confirmed by SPR (Biacore T200). More specifically, protein (Pro-EPR-mFc) obtained by fusing the extracellular domain of epiregulin which functions as a ligand with murine Fe region is captured on the sensor chip CM5 having anti-Murine IgG antibody immobilized thereon, and then eluted for kinetics assay with an analyte composed of a two-fold dilution series prepared by diluting a 20 nM anti-epiregulin scFv-V2122-FITC solution into nine steps (FIG. 14). […] Also epiregulin IgG and anti-epiregulin scFv protein were investigated in the binding test in the same way as described above, using a two-fold dilution series prepared by diluting a 300 nM solution into nine steps (FIG. 14). Data was analyzed using Biacore evaluation software.

[3] = test system: DLD1 cells having epiregulin expressed; assay: FACS analysis of cell surface binding potential; type: cell-based, human; settings: 0, 0.5, 5, 50 nM, on ice 30 minutes
Protocol: Cell surface binding potential was determined by FACS, using labeled antibodies that are anti-epiregulin scFv-V2122-FITC, epiregulin IgG-FITC and anti-epiregulin scFv-FITC. More specifically, dilute solutions of the labeled antibodies having concentrations of 0 nM, 0.5 nM, 5 nM and 50 nM were allowed to react on ice for 30 minutes with DLD1 cells (1×10^6 cells/mL, […]) having epiregulin expressed therein, and then fluorescence was measured using flow cytometer guava easyCyte 5. The measurement followed the usage and dosage instructions given in the manual of the instrument.

[4] = test system: DLD1 cells; assay: Cell staining and analysis of internalization; type: cell-based, human; settings: for staining of the surface of the cell membrane: DLD1, 25 nM, 50 nM and 100 nM
Protocol: Human colorectal cancer-derived DLD1 cells, used for cell staining, were cultured in a complete medium RPNI1640 (containing 10% FBS), and seeded in uClear 96-well plate (Greiner) in a density of 1×10^4 cells/well, two days before the assay. In the cell staining, first the medium was replaced with a complete medium added with Hoechst 33342 so as to adjust the concentration to 1 μM, and 15 minutes after, each of anti-epiregulin scFv-V2122-FITC, epiregulin IgG-FITC and anti-epiregulin scFv-FITC was added to the individual wells so as to adjust the concentration to 25 nM, 50 nM and 100 nM.
Binding of antibody to the cell surface, and internalization were analyzed using IN Cell Analyzer 6000 (GE Healthcare BioScience Corp.), and recorded by time lapse imaging at 5 minute intervals.

[5] = Immunogenicity testing, antibody in serum analyzed by SPR; type: in vivo, crab-eating monkey (Macaca fascicularis); settings: 1 mg purified protein administered three times (Day 0, 21, 42); four monkeys
Protocol: Immunogenicity testing was conducted using four crab-eating monkeys. One milligram of the purified protein was administered three times. Before administration, blood was collected for preparing a negative control serum, followed by three times of administration of 1 mg each of purified protein. More specifically, letting the first day of administration of Day 0, the second administration fell on Day 21, and the third administration fell on Day 42. For V2122, blood was collected on Days 7, 14, 28 and 35 to prepare serum samples, and for the other, blood was collected on Days 7, 14, 28, 35, 49 and 56 to prepare serum samples.
Antibody against V2122 in the serum samples was analyzed by surface plasmon resonance (SPR). More specifically, Biacore T200 (GE Healthcare BioScience Corp.) was used as a measuring instrument, which was operated in the mode using immunogenicity package. The sensor chip was CM5. As instructed by the manual, V2122 protein (10 μg/mL) was immobilized on the CM5 sensor chip using an amine coupling kit. Serum was diluted ten-fold with a running buffer (HBS-EP, GE Healthcare BioScience Corp.) for the interaction analysis. More specifically, the serum diluted ten-fold was loaded into the running buffer at a flow rate of 10 μL/min for 5 minutes. The obtained sensorgram was analyzed using an analytical software named Biacore T200 Evaluation Software.

[6] = SPR interaction of streptavidin mutants with biotin (Comparative Example 1); type: binding; settings: biotin 1.8-1800 nM; protein immobilized via His-Tag
Protocol: (§1) More specifically, using Biacore T200 (GE Healthcare BioScience Corp.) as a measuring instrument, and Sensor Chip NTA (GE Healthcare BioScience Corp.) as a sensor chip, the protein was immobilized on the sensor chip by way of His-Tag having been fused to the core protein. The running buffer was prepared using HBS-P(+), as described in the manual. A dilution series of Compound was prepared by using the running buffer in seven steps of 1.8 nM, 9 nM, 18 nM, 90 nM, 180 nM, 900 nM and 1800 nM, to obtain data.

[7] = SPR interaction of streptavidin mutants with Compound C (Comparative Example 2); type: binding; settings: Compound C 1.8-1800 nM; protein immobilized via His-Tag
Excerpt: as §1, with “Using the purified two […] core streptavidin mutants (cSA-Y43A, cSA-S45A) described above, and purified V2122 protein, interaction with Compound C was investigated by surface plasmon resonance (SPR). More” for “More”

T1 sequence (O14944 with tags, fused parts or gaps): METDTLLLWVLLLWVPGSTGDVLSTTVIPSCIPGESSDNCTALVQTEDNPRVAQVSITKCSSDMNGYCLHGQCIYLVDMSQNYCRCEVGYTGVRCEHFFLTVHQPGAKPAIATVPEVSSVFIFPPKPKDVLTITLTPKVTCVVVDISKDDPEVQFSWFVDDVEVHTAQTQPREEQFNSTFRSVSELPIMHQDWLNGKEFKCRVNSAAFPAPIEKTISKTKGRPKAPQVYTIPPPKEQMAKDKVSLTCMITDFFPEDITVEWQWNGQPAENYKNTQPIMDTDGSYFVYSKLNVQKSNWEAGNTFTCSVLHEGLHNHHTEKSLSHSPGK

B1: anti-epiregulin scFv-V2122: fusion protein formed by anti-epiregulin scFv and V2122; SEQ ID NO: 30 (protein)
chain: MKYLLPTAAAGLLLLAAQPAMAQVQLQQSGAEVKKPGASVKVSCKASGFNIKDTYMHWVRQAPEQGLEWMGRIDPLNDKTKYDPKFQGRVTITADTSTNTAYLELSSLTSEDTAVYYCARGGGDPVFVYWGQGTLVTVSASSGGGGSGGGGSGGGGSGGGGSGGDIQMTQSPSSLSASVGDRVTITCKASQDINKYLAWYQHKPGQAPRLLIHYTSTLHPGIPSRFSGSGSGTDFTFSISSLQPEDIATYYCLQYDNLRTFGGGTKVEIKRTSGGGGSGGGGAEAGITGTWSDQLGDTFIVTAGADGALTGTYENAVGGAESRYVLTGRYDSAPATDGSGTALGWTVAWKNNSKNAHSATTWSGQYVGGADAKINTQWLLTSGTTNANAWKSTLVGHDTFTKVKPSAASHHHHHH
accumulation in tumor [1]: accumulate in the tumor of the model mice earlier (2 hours after administration) than the labeled IgG

affinity relative to epiregulin IgG-FITC and anti-epiregulin scFv-FITC [2]: 100 to 1000 times
Kd [2]: 0.23 nM
B2: anti-epiregulin scFv-V2122-FITC: FITC-labeled product of purified anti-epiregulin scFv-V2122 (protein)
scFv: QVQLQQSGAEVKKPGASVKVSCKASGFNIKDTYMHWVRQAPEQGLEWMGRIDPLNDKTKYDPKFQGRVTITADTSTNTAYLELSSLTSEDTAVYYCARGGGDPVFVYWGQGTLVTVSASSGGGGSGGGGSGGGGSGGGGSGGDIQMTQSPSSLSASVGDRVTITCKASQDINKYLAWYQHKPGQAPRLLIHYTSTLHPGIPSRFSGSGSGTDFTFSISSLQPEDIATYYCLQYDNLRTFGGGTKVEIKRTSGGGGSGGGGAEAGITGTWSDQLGDTFIVTAGADGALTGTYENAVGGAESRYVLTGRYDSAPATDGSGTALGWTVAWKNNSKNAHSATTWSGQYVGGADAKINTQWLLTSGTTNANAWKSTLVGHDTFTKVKPSAASHHHHHH
cell surface binding potential by FACS [3]: equivalent levels of binding potential
time at which internalization began to be observed after addition of antibody ([4]; DLD1): approximately 10 minutes
staining of the surface of the cell membrane [4]: staining of the surface of the cell membrane was observed
migration of fluorescence into the cytoplasm ([4]; DLD1, sixty-five minutes after addition): almost entire part of fluorescence was found to migrate into the cytoplasm
internalization ([4]; DLD1, time lapse imaging at 5 minute intervals): distinct internalization was observed

Kd [2]: 120 nM
B3: anti-epiregulin scFv-FITC: FITC-labeled anti-epiregulin scFv protein (SEQ ID NO: 22) (protein)
scFv: MKYLLPTAAAGLLLLAAQPAMAQVQLQQSGAEVKKPGASVKVSCKASGFNIKDTYMHWVRQAPEQGLEWMGRIDPLNDKTKYDPKFQGRVTITADTSTNTAYLELSSLTSEDTAVYYCARGGGDPVFVYWGQGTLVTVSASSGGGGSGGGGSGGGGSGGGGSGGDIQMTQSPSSLSASVGDRVTITCKASQDINKYLAWYQHKPGQAPRLLIHYTSTLHPGIPSRFSGSGSGTDFTFSISSLQPEDIATYYCLQYDNLRTFGGGTKVEIKRTSHHHHHH
modifications: FITC label
cell surface binding potential by FACS [3]: level of binding potential lower than those shown by the former two
staining of the surface of the cell membrane [4]: staining of the surface of the cell membrane was observed

B4: V2122: glycine mutant (N49G) of V212 streptavidin mutant; amino acid sequence SEQ ID NO: 4 (protein)
chain: AEAGITGTWSDQLGDTFIVTAGADGALTGTYENAVGGAESRYVLTGRYDSAPATDGSGTALGWTVAWKNNSKNAHSATTWSGQYVGGADAKINTQWLLTSGTTNANAWKSTLVGHDTFTKVKPSAAS
immunogenicity [5]: low as compared with the immunogenicity of the wild-type streptavidin and LISA314
interaction with biotin (sensorgram) [6]: absence of specific binding
interaction with Compound C (sensorgram) [7]: specific binding showing only an extremely slow dissociation
